Molecular target: T1, IFNAR on 38C13 cells (murine, UniProt P33896 27-590; O35664 22-513)
T1 sequence (looked up) 1: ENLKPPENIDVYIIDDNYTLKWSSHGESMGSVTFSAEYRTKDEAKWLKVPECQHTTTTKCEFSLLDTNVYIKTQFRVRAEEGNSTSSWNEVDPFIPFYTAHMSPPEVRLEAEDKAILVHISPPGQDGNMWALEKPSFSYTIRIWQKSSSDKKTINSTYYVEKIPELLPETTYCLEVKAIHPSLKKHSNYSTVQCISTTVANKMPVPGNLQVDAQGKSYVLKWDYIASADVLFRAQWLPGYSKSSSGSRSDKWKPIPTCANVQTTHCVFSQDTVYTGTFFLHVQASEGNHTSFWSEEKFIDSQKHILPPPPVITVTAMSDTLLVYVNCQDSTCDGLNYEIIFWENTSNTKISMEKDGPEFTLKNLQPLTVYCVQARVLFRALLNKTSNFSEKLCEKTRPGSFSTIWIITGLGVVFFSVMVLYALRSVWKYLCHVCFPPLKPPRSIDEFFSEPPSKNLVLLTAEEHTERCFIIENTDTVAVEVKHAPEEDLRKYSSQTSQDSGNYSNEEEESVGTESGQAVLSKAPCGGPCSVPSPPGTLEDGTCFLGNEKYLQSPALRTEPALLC
T1 sequence (looked up) 2: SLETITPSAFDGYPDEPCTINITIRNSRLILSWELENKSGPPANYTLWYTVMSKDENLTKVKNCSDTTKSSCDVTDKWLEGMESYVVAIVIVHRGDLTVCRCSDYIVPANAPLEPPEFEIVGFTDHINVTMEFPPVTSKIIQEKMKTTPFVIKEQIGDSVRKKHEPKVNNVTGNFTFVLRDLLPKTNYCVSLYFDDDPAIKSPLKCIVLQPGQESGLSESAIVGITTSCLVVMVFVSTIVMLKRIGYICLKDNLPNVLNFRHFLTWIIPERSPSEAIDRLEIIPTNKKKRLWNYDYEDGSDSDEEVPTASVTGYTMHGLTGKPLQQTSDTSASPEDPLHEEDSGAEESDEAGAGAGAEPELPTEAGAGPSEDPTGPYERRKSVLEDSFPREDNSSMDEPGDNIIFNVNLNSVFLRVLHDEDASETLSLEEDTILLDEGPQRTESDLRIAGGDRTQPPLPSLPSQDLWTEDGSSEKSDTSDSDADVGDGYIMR
Test: cell-based or functional assay

B1: anti-CD20/IgG3-mu-IFN-α (other)
heavy: QVQLQQPGAELVKPGASVKMSCKASGYTFTSYNMHWVKQTPGRGLEWIGAIYPGNGDTSYNQKFKGKATLTADKSSSTAYMQLSSLTSEDSAVYYCARSTYYGGDWYFNVWGAGTTVTVSAASTKGPSVFPLAPCSRSTSGGTAALGCLVKDYFPEPVTVSWNSGALTSGVHTFPAVLQSSGLYSLSSVVTVPSSSLGTQTYTCNVNHKPSNTKVDKRVELKTPLGDTTHTCPRCPEPKSCDTPPPCPRCPEPKSCDTPPPCPRCPEPKSCDTPPPCPRCPAPELLGGPSVFLFPPKPKDTLMISRTPEVTCVVVDVSHEDPEVQFKWYVDGVEVHNAKTKLREEQYNSTFRVVSVLTVLHQDWLNGKEYKCKVSNKALPAPIEKTISKAKGQPREPQVYTLPPSREEMTKNQVSLTCLVKGFYPSDIAVEWESNGQPENNYNTTPPMLDSDGSFFLYSKLTVDKSRWQQGNIFSCSVMHEALHNHYTQKSLSLSPGKSGGGGSCDLPQTHNLRNKRALTLLVQMRRLSPLSCLKDRKDFGFPQEKVDAQQIKKAQAIPVLSELTQQILNIFTSKDSSAAWNATLLDSFCNDLHQQLNDLQGCLMQQVGVQEFPLTQEDALLAVRKYFHRITVYLREKKHSPCAWEVVRAEVWRALSSSANVLGRLREEK
light: QIVLSQSPAILSASPGEKVTMTCRASSSVSYIHWFQQKPGSSPKPWIYATSNLASGVPVRFSGSGSGTSYSLTISRVEAEDAATYYCQQWTSNPPTFGGGTKLEIK
For B1, the “IC50 (pM) 38C13-CD20, cell viability, MTS assay” value was 76.4 pM and the “IC50 (pM) 38C13-CD20-IFNR Knock Down, cell viability, MTS assay” value was 848 pM.

From patent US20110104112A1 (University of California, published 2011)
